Data reported in patent publication US20020037538A1, “Compositions, kits, and methods for identification, assessment, prevention, and therapy of psoriasis” (priority 2000, published 2002).

Columns and labels:
[1] = test system: plaque psoriasis; assay: Response to therapy by clinical and histopathological criteria (Example 4); type: in vivo, human; conditions: treated for 8 weeks
Description: (§1) Patients with extensive plaque psoriasis (>10% body surface area affected) were considered eligible for entry into the study. […] At the start of enrollment, a psoriatic plaque was chosen for weekly assessment of lesion severity scores by the study coordinator. A 6 mm punch biopsy was taken of this lesional skin prior to rhIL-11 or cyclosporin treatment and at weeks 1, 4, 8 and 12 during IL-11 or cyclosporin treatment. In addition, prior to initiation of treatment, a 6 mm punch biopsy was taken from uninvolved skin at a location of the patient's choosing. Biopsies were equally divided for immunohistochemical analysis and for RNA preparation. Normal skin was obtained from healthy volunteers.
Sections were reacted with antibodies to CD3, CD8, keratin 16, Ki67, ICAM-1, or HLA-DR and processed for immunohistochemistry as previously described (Trepicchio et al., supra). Computer-assisted image analysis was used to quantify epidermal thickness and the number of CD3+, CD8+, or Ki67+ cells in tissue sections as described. The grading system used to measure clinical disease activity was the PSI score, described above.
RhIL-11 was administered to patients by a subcutaneous route at either a dose of 5 ug/kg/day or a single 1 mg or 2 mg dose administered once weekly. Cyclopsorin A was administered at a dose of 5 μg/kg/day (Gottlieb et al., supra).

[2] = test system: proinflammatory cytokine production; conditions: in part through inhibition of NF-κKB nuclear translocation; Trepicchio et al. (1997); cited from earlier work
[3] = test system: S100A12, HBP17, K16, CCNF, SCYA2, PRKMK3, ID4, CST6 and TNXA mRNA; assay: Quantitative RT-PCR of early responding genes in treated patients; type: in vivo, human; conditions: responding patients but not non-responding patients
Protocol: Quantitative RT-PCR was performed as previously described (Trepicchio et al., supra). RNA samples from patient biopsies were treated with 10U of RQ1 DNase I (Promega) for 30 minutes at 37° C. […] Sequence-specific amplification was detected as an increased fluorescent signal of 6-FAM during the amplification cycle. Quantitation of gene-specific message levels was based on a comparison of the fluorescent intensity in the unknown mRNA sample to the fluorescent intensity from a standard curve of known mRNA levels. […] Levels of gene-specific messages were graphed as normalized message units as determined from the standard curve. […]
Quantitative measures of gene expression changes were statistically evaluated using the JMP statistical discovery software package (SAS Institute, Inc., Cary, N.C.). […] Differences between non-lesional to lesional skin were analyzed using 2-tailed paired T-test. […]
Changes in gene expression levels that precede clinical improvement may identify genes that play a potential causative role in disease progression or may be early markers of clinical efficacy. Quantitative RT-PCR was used to analyze gene expression changes for these early responding genes in a larger patient population. […]

[4] = test system: marker genes in psoriatic lesional skin; assay: GeneChip marker analysis of lesional skin biopsies during rhIL-11 or cyclosporin A treatment (Example 3); type: in vivo, human
Protocol: Labeled RNA was prepared from clones containing a T7 RNA polymerase promoter site by incorporating labeled ribonucleotides in an in vitro transcription (IVT) reaction. Either biotin-labeled or fluorescein-labeled UTP and CTP (1:3 labeled to unlabeled) plus unlabeled ATP and GTP were used for the reaction with 2500 U of T7 RNA polymerase. Following the reaction, unincorporated nucleotide triphosphates were removed using a size-selective membrane (Mircrocon-100, Amicon, Beverly, Mass.). The total molar concentration of RNA was based on a measurement of the absorbance at 260 nm. Following quantitation of RNA amounts, RNA was fragmented randomly to an average length of approximately 50 bases by heating at 94° C. in 40 mM Tris-acetate pH 8.1, 100 mM potassium acetate, 30 mM magnesium acetate, for 30 to 40 min. Fragmentation reduces possible interference from RNA secondary structure, and minimizes the effects of multiple interactions with closely spaced probe molecules. For material made directly from cellular RNA, cytoplasmic RNA was extracted from cells by the method of Favaloro et al. ((1980) Methods Enzymol. 65: 718-749), and poly (A) RNA was isolated with an oligo dT selection step (PolyAtract, Promega, Madison, Wis.). […] The total molar concentration of labeled cRNA was determined from the absorbance at 260 nm and assuming an average RNA size of 1000 ribonucleotides. […]
The hybridization solutions contained 0.9 M NaCl, 60 mM NaH2PO4, 6 mM EDTA, and 0.005% Triton X-100, adjusted to pH 7.6 (referred to as 6×SSPE-T). […] When biotin-labeled RNA was used, the hybridized RNA was stained with a streptavidin-phycoerythrin conjugate (Molecular Probes, Eugene, Oreg.) prior to reading. […] The arrays were read using a scanning confocal microscope made for Affy metrix by Molecular Dynamics (commercially available through Affymetrix, Santa Clara, Calif.) The scanner uses an argon ion laser as the excitation source, with the emission detected by a photomultiplier tube through either a 530 nm bandpass filter (fluorescein), or a 560 nm longpass filter (phycoerythrin). […]

[5] = test system: psoriatic plaque; assay: Psoriasis Severity Index (PSI) score at the lesion biopsy site during treatment (Example 3); type: in vivo, human; conditions: for PSI score: seen at weeks 8 and 12
Protocol: Three subjects with extensive psoriasis (>10% body surface area affected) were treated with […] of rhIL-11 subcutaneously every day for 8 weeks (Trepicchio et al. (1999) J. Clin. Invest. 104:1527-1537). The dose selection of rhIL-11 was based on the outcome of a clinical trial in subjects with Crohn's disease, where biological activity was observed. […] Upon enrollment, a psoriatic plaque was chosen for weekly assessment of lesion severity. […] In addition, before initiation of treatment, a 6-mm punch biopsy was taken from uninvolved skin at a location of the patent's choosing. Biopsies were equally divided for immunohistochemical analysis and for RNA preparation. Global clinical assessment of each subject was based on the Psoriasis Area and Severity Index (PASI) score in each subject before and during therapy as described previously (Gottlieb, et al. (1992) J. Invest. Dermatol. 98:302-309). The grading system used to measure local disease activity at the lesion biopsy site was the Psoriasis Severity Index (PSI). This index grades individual psoriasis lesions for scale, erythema, and induration on a 0- to 6- point scale for each parameter (0, absent, 1, trace, 2, mild, 3, mild to moderate, 4, moderate, 5, moderate to severe, and 6, severe). The final score is the sum of the individual parameters for a range of 0-18 (Fredriksson and Pettersson (1978) Dermatologica 157: 238-244; and Coven et al. (1997) Arch. Dermatol. 133:1514-1522). Histopathological assessment was performed on one-half of the 6-mm punch biopsy. […] Sections were reacted with antibodies to CD3, CD8, K16, Ki67, ICAM-1, or HLA-FR and processed for immunohistochemistry as described previously. Computer-assisted image analysis was used to quantify epidermal thickness and the number of CD3+, CD8+, or Ki67+ cells in tissue sections as described (Gottlieb et al. (1995) Nat. Med. 1:442-447).

[6] = test system: psoriasis patients; conditions: Trepicchio et al. (1999); cited from earlier work
[7] = test system: 165 genes differentially expressed between lesional and non-lesional skin; assay: Gene chip / self-organizing map analysis of lesional skin over the course of drug treatment (Example 4); type: in vivo, human
Description: as §1
Total RNA was isolated from 6 mm full thickness skin biopsies using the RNeasy mini kit (Qiagen, Hilden, Germany). 2 μg total RNA was converted to cDNA by priming with an oligo-dT primer containing a T7 RNA polymerase promoter at the 5′ end. RNA was reverse transcribed with 200 units Superscript RT II at 50° C. for 1 hour in 1×first-strand buffer, 10 mM DTT and 0.5 mM each dNTP (Gibco BRL, Gaithersburg, Md.). […] RNA was concentrated and the amount measured using a spectrophotometer. […]

B1: rhIL-11: recombinant human IL-11, experimental immune modulatory cytokine (protein, UniProt P20809 22-199, looked up)
Interleukin-11: PGPPPGPPRVSPDPRAELDSTVLLTRSLLADTRQLAAQLRDKFPADGDHNLDSLPTLAMSAGALGALQLPGVLTRLRADLLSYLRHVQWLRRAGGSSLKTLEPELGTLQARLDRLLRRLQLLMSRLALPQPPPDPPAPPLAPPSSAWGGIRAAHAILGGLHLTLDWAVRGLLLLKTRL
[1]
  patients considered to have responded to therapy: 8 out of 15
[2]
  proinflammatory cytokine production: reduce proinflammatory cytokine production
[3]
  earliest time at which changes in gene expression were observed: 1 week
[4]; Patient #202, rhIL-11, throughout the study
  expression levels of the bulk of the markers: similarly unchanged
[4]; Patients #203 and 208, rhIL-11, by week 8 compared to the beginning of the study
  expression of the preponderance of the markers: decrease in expression at least two-fold
[4]; Patients #203 and 208, rhIL-11, by week 12 compared to the beginning of the study
  expression of the markers: nearly all of the markers decreased in expression
[5]; Patient #202, rhIL-11
  response to the treatment as assessed by PSI scores: did not respond to the treatment
[5]; Patient #202, rhIL-11 treatment, throughout the course of the study
  PSI scores: 9-11
[5]; rhIL-11, first value of 'respectively' (Patient #203)
  PSI score: 4
[5]; rhIL-11, second value of 'respectively' (Patient #208)
  PSI score: 5
[6]
  activity in psoriasis patients: improve clinical and histopathological scores
[7]; FIG. 6, Group I
  differentially regulated genes that returned to normal or uninvolved levels at time points preceding clinical improvement: 36 genes
[7]; responding patients at week 1 of therapy, not in non-responding patients
  levels of expression of 36 genes including HBP17, SCYA2, PRKMK3, GNA15, PHB and MTX: change significantly
